According to paper PMC3221699:
Read-outs that look alike come from different tables or passages of the source.

Experiments:
IL-10R1 (Homo sapiens) [1] = target: IL-10R1 (Homo sapiens) (UniProt Q13651); settings: cited from earlier work
[2] = target: human IL-10R1 chain coupled to agarose beads (human) (UniProt Q13651)
[3] = target: IL-10R1-FC fusion protein (human IL-10R1 extracellular region fused to mouse IgG2a FC) (human) (UniProt Q13651); assay: SPR; Biacore T200, 20 °C, HBS (10 mM Hepes pH 7.4, 0.15 M NaCl, 0.1% P20, 0.1 mg/mL BSA); IL-10R1-FC captured (~75 RU) by anti-murine FC antibody on a CM5 chip; RhCMVIL-10 (0-100 nM) or M1/M2 (100, 500, 1000 nM) injected at 75 µL/min; global fit to a bivalent analyte model (Rmax, and tc for M1, fixed for the mutants); KD2 called apparent
[4] = target: Rhesus cytomegalovirus IL-10 (RhCMVIL-10), wild type (rhesus cytomegalovirus (RhCMV) strain 68-1); assay: SEC; 24 mL Superdex 200 gel filtration column; elution position of affinity purified RhCMVIL-10 compared with cIL-10; fractions analysed by SDS-PAGE
IL-10R1 (Homo sapiens) [5] = target: IL-10R1 (Homo sapiens) (UniProt Q13651); settings: cited from earlier work; remark: listed apart in the source

Sequence of cIL-10 (P22301 19-178): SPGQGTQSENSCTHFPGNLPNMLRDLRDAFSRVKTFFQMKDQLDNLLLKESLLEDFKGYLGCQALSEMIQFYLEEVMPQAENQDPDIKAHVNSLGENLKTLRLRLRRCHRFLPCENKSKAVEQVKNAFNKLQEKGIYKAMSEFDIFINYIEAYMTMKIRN

| Substance | KD1 (bivalent analyte model, kd1/ka1) [3] [µM] | KD2 (bivalent analyte model, apparent, kd2/ka1) [3] [nM] | ka1 (bivalent analyte model, first step) [3] [M⁻¹ s⁻¹] | ka2 (bivalent analyte model, second step) [3] | kd1 (bivalent analyte model, first step) [3] [s⁻¹] | kd2 (bivalent analyte model, second step) [3] [s⁻¹] | further results |
| --- | --- | --- | --- | --- | --- | --- | --- |
| CMVIL-10 (from UniProt P17150) |  |  |  |  |  |  | Kd (IL-10R1 (Homo sapiens) [1]): 1 nM |
| H6FXa-RhCMVIL-10 Asp-144His (ligand) |  |  |  |  |  |  | proliferation of TF-1/IL-10R1 cells, EC50 relative to RhCMVIL-10 and cIL-10; considerable activity retained at 1,000 ng/ml [2]: 300 fold |
| H6FXa-RhCMVIL-10 Gln-38Arg (ligand) |  |  |  |  |  |  | proliferation of TF-1/IL-10R1 cells, EC50 relative to RhCMVIL-10 and cIL-10; considerable activity retained at 1,000 ng/ml [2]: 100 fold |
| RhCMVIL-10 mutant 1 (M1; Gln-38Arg, Asp-144His), RhCMVIL-10-FXaH6 (ligand) | 43 | 410 | 4620 | 0.000232 1/RUs | 0.199 | 0.00187 | Rm-obs (maximum RU observed at the highest concentration, 1000 nM) [3]: 0.8 RU |
| RhCMVIL-10 mutant 2 (M2; Glu-142Gln, Asp-144His), RhCMVIL-10-FXaH6 (ligand) | 14.7 | 94.4 | 14500 | 0.000548 1/RUs | 0.212 | 0.00136 | Rm-obs (maximum RU observed at the highest concentration, 1000 nM) [3]: 3 RU |
| Rhesus cytomegalovirus IL-10 (RhCMVIL-10), wild type (ligand) | 0.0651 | 1.3 | 1.18e+06 | 0.00105 1/RUs | 0.0767 | 0.00155 | stoichiometry N [4]: 2; Rm-obs (maximum RU observed at the highest concentration, 100 nM) [3]: 20.9 RU |
| cIL-10 (from UniProt P22301) |  |  |  |  |  |  | Kd (IL-10R1 (Homo sapiens) [5]): 1 nM |
